From the Immune Epitope Database (IEDB)

Assays:
HLA-A*24:03 = experiment: IEDB peptide-MHC binding, purified MHC/direct/fluorescence; filed as Kd, often an IC50 or EC50 that approximates it; ≥ and ≤ were set here for values at or beyond the usual limits of such assays; conditions: source organism: Vibrio parahaemolyticus
HLA-A*32:01 = experiment: IEDB peptide-MHC binding, purified MHC/competitive/radioactivity; filed as Kd, often an IC50 or EC50 that approximates it; ≥ and ≤ were set here for values at or beyond the usual limits of such assays
HLA-B*44:02 = experiment: as above; conditions: source organism: Dengue virus 1 Singapore/S275/1990
HLA-A*30:01 = experiment: as above
HLA-A*11:01 = experiment: as above; conditions: source organism: Dengue virus 3 Martinique/1243/1999
HLA-A*26:01 = experiment: as above
HLA-B*08:01 = experiment: as above
HLA-B*51:01 = experiment: IEDB peptide-MHC binding, purified MHC/competitive/fluorescence; filed as Kd, often an IC50 or EC50 that approximates it; ≥ and ≤ were set here for values at or beyond the usual limits of such assays
HLA-A*68:02 = experiment: IEDB peptide-MHC binding, purified MHC/competitive/radioactivity; filed as Kd, often an IC50 or EC50 that approximates it; ≥ and ≤ were set here for values at or beyond the usual limits of such assays
HLA-B*35:01 = experiment: as above; conditions: source organism: Dengue virus 1 Brazil/97-11/1997
HLA-A*68:01 = experiment: as above; conditions: source organism: Dengue virus 1 Brazil/97-11/1997
HLA-A*02:06 = experiment: as above
HLA-A*02:02 = experiment: as above
HLA-A*02:03 = experiment: as above
HLA-B*27:05 = experiment: IEDB peptide-MHC binding, purified MHC/direct/fluorescence; filed as Kd, often an IC50 or EC50 that approximates it; ≥ and ≤ were set here for values at or beyond the usual limits of such assays; conditions: source organism: Influenza A virus (A/swine/Hong Kong/273/1994(H1N1))
HLA-A*03:01 [1] = experiment: as above; conditions: source organism: Influenza A virus (A/swine/Hong Kong/273/1994(H1N1))
HLA-B*58:01 = experiment: as above; conditions: source organism: Influenza A virus (A/swine/Hong Kong/273/1994(H1N1))
HLA-A*01:01 = experiment: as above; conditions: source organism: Influenza A virus (A/swine/Hong Kong/273/1994(H1N1))
HLA-B*07:02 = experiment: as above; conditions: source organism: Influenza A virus (A/swine/Hong Kong/273/1994(H1N1))
HLA-A*02:12 = experiment: as above; conditions: source organism: Influenza C virus
HLA-B*15:01 [2] = experiment: as above; conditions: source organism: Influenza A virus (A/swine/Hong Kong/273/1994(H1N1))
HLA-B*15:01 [3] = experiment: IEDB peptide-MHC binding, purified MHC/competitive/radioactivity; filed as Kd, often an IC50 or EC50 that approximates it; ≥ and ≤ were set here for values at or beyond the usual limits of such assays
HLA-A*03:01 [4] = experiment: as above; conditions: source organism: Dengue virus 4 Philippines/H241/1956
HLA-A*02:01 = experiment: IEDB peptide-MHC binding, purified MHC/competitive/fluorescence; filed as Kd, often an IC50 or EC50 that approximates it; ≥ and ≤ were set here for values at or beyond the usual limits of such assays; conditions: source organism: Variola virus
[5] = source organism: Dengue virus 1 Brazil/97-11/1997
[6] = source organism: Dengue virus 2 Jamaica/1409/1983
[7] = source organism: Dengue virus 3 Martinique/1243/1999
[8] = source organism: Dengue virus 2 16681-PDK53
[9] = source organism: Vaccinia virus WR
[10] = source organism: Mammarenavirus juninense
[11] = source organism: Dengue virus 4 Philippines/H241/1956

Sequence: AFYLWIVGF
- Kd (HLA-A*24:03): 2100 nM

Sequence: AGILARWGSF
- Kd (HLA-A*32:01; source organism: Dengue virus 1 Singapore/S275/1990): 1140 nM
- Kd (HLA-B*44:02): 12600 nM

Sequence: AIFMTATPPG
- Kd (HLA-A*30:01; [5]): 179 nM

Sequence: ATMANEMGF
- Kd (HLA-A*32:01; [6]): 138 nM

Sequence: ATQLATLRK
- Kd (HLA-A*11:01): 67.8 nM
- Kd (HLA-A*30:01; [7]): 5.76 nM

Sequence: CTILAVVSVS
- Kd (HLA-A*30:01; [8]): 9700 nM
- Kd (HLA-A*26:01; [8]): ≥ 69700 nM

Sequence: DIMALIVSI
- Kd (HLA-A*32:01; source organism: Vaccinia virus): 114 nM

Sequence: DLRRRFDTF
- Kd (HLA-B*08:01; [9]): 1.58 nM

Sequence: ENRLHKECL
- Kd (HLA-B*08:01; [9]): 73.2 nM

Sequence: EPNFSIPQI
- Kd (HLA-B*51:01; source organism: Mycobacterium tuberculosis variant bovis BCG str. Pasteur 1173P2): 268 nM

Sequence: ETACLGKAYA
- Kd (HLA-A*68:02; [7]): 3.62 nM
- Kd (HLA-A*26:01; [7]): 207 nM

Sequence: FALLKFTYL
- Kd (HLA-B*08:01; [9]): 1.59 nM

Sequence: FNKDIFVSL
- Kd (HLA-B*08:01; [9]): 277 nM

Sequence: FTNMEVQLIR
- Kd (HLA-B*35:01): 14600 nM
- Kd (HLA-A*68:01): 87.4 nM

Sequence: GGALVRNPLS
- Kd (HLA-A*30:01; [6]): 5290 nM

Sequence: GLSQFTQTV
- Kd (HLA-A*02:06; [10]): 721 nM
- Kd (HLA-A*68:02; [10]): ≥ 26000 nM
- Kd (HLA-A*02:02; [10]): 3.92 nM
- Kd (HLA-A*02:03; [10]): 0.699 nM

Sequence: GMFNMLSTV
- Kd (HLA-B*27:05): 10100 nM
- Kd (HLA-A*03:01 [1]): ≥ 20000 nM
- Kd (HLA-B*58:01): ≥ 20000 nM
- Kd (HLA-A*01:01): ≥ 20000 nM
- Kd (HLA-B*07:02): ≥ 20000 nM
- Kd (HLA-A*02:12): 49 nM
- Kd (HLA-B*15:01 [2]): 105 nM

Sequence: GMNSRSTSL
- Kd (HLA-B*08:01; [6]): 7.81 nM
- Kd (HLA-A*02:03; [6]): 18.2 nM
- Kd (HLA-B*15:01 [3]; [6]): 86.6 nM

Sequence: HASPTLFNA
- Kd (HLA-A*30:01; [9]): 66.3 nM

Sequence: HLIFSYAFL
- Kd (HLA-A*30:01; [9]): 213 nM

Sequence: HMILVVVTTL
- Kd (HLA-B*08:01; [11]): 5170 nM
- Kd (HLA-B*15:01 [3]; [11]): 408 nM

Sequence: IFKLTYQNK
- Kd (HLA-A*30:01; [6]): 340 nM

Sequence: IGILLTWLGL
- Kd (HLA-A*32:01; [5]): ≥ 38800 nM

Sequence: ILCYFILIF
- Kd (HLA-A*32:01; [9]): 11500 nM

Sequence: ILKNSQGEEV
- Kd (HLA-A*02:06; source organism: Homo sapiens): ≥ 72500 nM
- Kd (HLA-A*68:02; source organism: Homo sapiens): 2250 nM

Sequence: ILKRWGQLK
- Kd (HLA-A*30:01; [11]): 318 nM
- Kd (HLA-A*03:01 [4]): 3.58 nM

Sequence: IMGQLTWNDL
- Kd (HLA-B*08:01; [5]): 6490 nM

Sequence: IPNDFKELV
- Kd (HLA-B*51:01; source organism: Rickettsia typhi str. Wilmington): 446 nM

Sequence: KAERVIDPRR
- Kd (HLA-A*30:01; [6]): 11400 nM

Sequence: KARDALDNL
- Kd (HLA-A*30:01; [6]): 71.5 nM

Sequence: KARNALDNL
- Kd (HLA-A*30:01; [8]): 19.7 nM

Sequence: KIDFLFFII
- Kd (HLA-A*32:01; source organism: Vaccinia virus Copenhagen): 1.97 nM

Sequence: KSAHFLLIF
- Kd (HLA-A*32:01; [9]): 0.185 nM

Sequence: KTMMINPFM
- Kd (HLA-A*30:01; [9]): 0.362 nM

Sequence: KVIVRNLNK
- Kd (HLA-A*30:01; [9]): 1.44 nM

Sequence: KVKNVHIGG
- Kd (HLA-A*30:01; [9]): 0.338 nM

Sequence: LALDSYWPV
- Kd (HLA-B*51:01; source organism: Yersinia pestis Nepal516): 711 nM

Sequence: LDILTEIASL
- Kd (HLA-B*08:01; [11]): 871 nM

Sequence: LIDNPDNNL
- Kd (HLA-A*02:01): 77.6 nM

Sequence: LLITHYAII
- Kd (HLA-B*08:01; [7]): 371 nM
- Kd (HLA-A*02:03; [7]): 18.1 nM

Sequence: LLNVKMALDI
- Kd (HLA-A*68:02; source organism: Homo sapiens): 1000 nM
- Kd (HLA-A*02:03; source organism: Homo sapiens): 83.2 nM

Sequence: LLSGAGEHL
- Kd (HLA-A*68:02; source organism: Homo sapiens): ≥ 47200 nM
- Kd (HLA-A*02:02; source organism: Homo sapiens): 5.73 nM
- Kd (HLA-A*02:03; source organism: Homo sapiens): 19.2 nM
